{"source": "the RNAGym collection of RNA variant scans (doi:10.1021/acssynbio.7b00057)", "parents": {"B1": {"name": "Pistol ribozyme (parent)", "chain": "GGGUCGUUGUUCCAUAAUCGCGUGGAUAUGGCACGCAAGUUUCUACCGGGCACCGUAAAUGUCCGACUGGAGCCGUUCGGGCGGCUAUAAACAGACCUCAGGCCCGAAGCGUGGCGGCACCUGCCGCCGGUGGUAAAAAAGAUCGGAAGAGCACACGUCU"}}}
{"variants_of": "B1", "assay": "aptazyme ON/OFF ratio, guanine; higher = stronger switching; co-transcriptional cleavage with and without guanine"}
{"variant": "U7C G9U U11A C12A", "aptazyme ON/OFF ratio": 1.36}
{"variant": "U7G U8C G9C U10G U11A C12G C13U", "aptazyme ON/OFF ratio": 1.1}
{"variant": "U8G U10A U11G C12G C13A", "aptazyme ON/OFF ratio": 1.31}
{"variant": "U7C U8C G9A U10G C13G", "aptazyme ON/OFF ratio": 1.12}
{"variant": "U8C G9U U10A U11C C13U", "aptazyme ON/OFF ratio": 1.02}
{"variant": "U8G G9C U11G C12A C13U", "aptazyme ON/OFF ratio": 1.08}
{"variant": "U8A G9A U10A U11A C13G", "aptazyme ON/OFF ratio": 1.06}
{"variant": "U8G U10A U11G C12A C13A", "aptazyme ON/OFF ratio": 1.11}
{"variant": "U7A U8G G9A U10G U11C C12G C13U", "aptazyme ON/OFF ratio": 1.22}
{"variant": "U7A U8C G9C U10G C12A C13G", "aptazyme ON/OFF ratio": 1.12}
{"variant": "U7G U8C U10G U11A C13U", "aptazyme ON/OFF ratio": 1.19}
{"variant": "U7C U8G G9U U11G C12U C13A", "aptazyme ON/OFF ratio": 1.32}
{"variant": "U8A U10G U11A C12A C13U", "aptazyme ON/OFF ratio": 1.11}
{"variant": "U7G G9A U10C U11A C13A", "aptazyme ON/OFF ratio": 1.17}
{"variant": "U7G U8A G9C U10G U11C C13G", "aptazyme ON/OFF ratio": 1.06}
{"variant": "U8A G9A U10G U11G C12G C13G", "aptazyme ON/OFF ratio": 1.07}
{"variant": "U7C U8G G9A U10C U11G C12G C13A", "aptazyme ON/OFF ratio": 1.23}
{"variant": "U7G G9C U10A C12A", "aptazyme ON/OFF ratio": 1.43}
{"variant": "U7G G9U U11C C12G", "aptazyme ON/OFF ratio": 1.74}
{"variant": "U7A U8G U10A U11A C12U C13A", "aptazyme ON/OFF ratio": 1.72}
{"variant": "U7C U11G C13A", "aptazyme ON/OFF ratio": 1.06}
{"variant": "U7A U8G G9A U10A U11A C13U", "aptazyme ON/OFF ratio": 1.17}
{"variant": "U7A U8A G9U U10C C12A C13U", "aptazyme ON/OFF ratio": 1.16}
{"variant": "U8G G9C U10G U11C C12G", "aptazyme ON/OFF ratio": 1.03}
{"variant": "U7C U8A G9C C12U C13U", "aptazyme ON/OFF ratio": 1.19}
{"variant": "U8G U11C C12A C13U", "aptazyme ON/OFF ratio": 1.14}
{"variant": "U7G U8A G9U U10G U11C C12G", "aptazyme ON/OFF ratio": 1.1}
{"variant": "U7C U10A U11A C12G C13U", "aptazyme ON/OFF ratio": 1.17}
{"variant": "U7G U8C G9U U10G U11G", "aptazyme ON/OFF ratio": 1.55}
{"variant": "U7G U8C U10C C13A", "aptazyme ON/OFF ratio": 1.07}
{"variant": "U8A G9C C12U C13G", "aptazyme ON/OFF ratio": 1.15}
{"variant": "U7G G9C C13A", "aptazyme ON/OFF ratio": 1.29}
{"variant": "G9U U10C U11G C12U", "aptazyme ON/OFF ratio": 2.12}
{"variant": "U8G G9U U10A U11G C13U", "aptazyme ON/OFF ratio": 1.04}
{"variant": "U7C U8A G9C U10A C12G C13A", "aptazyme ON/OFF ratio": 1.11}
{"variant": "U8C G9A U10A U11A C12A C13G", "aptazyme ON/OFF ratio": 1.15}
{"variant": "U7A U8A G9A", "aptazyme ON/OFF ratio": 1.87}
{"variant": "U7A U10G U11C C12U C13G", "aptazyme ON/OFF ratio": 1.41}
{"variant": "U7A U8A G9C U10G U11C C12G C13G", "aptazyme ON/OFF ratio": 1.39}
{"variant": "U7A U8G G9A U10C U11A C12A C13A", "aptazyme ON/OFF ratio": 1.12}
{"variant": "U8A U10G U11A C12A C13G", "aptazyme ON/OFF ratio": 1.15}
{"variant": "U7C U8A G9C U11G C12G", "aptazyme ON/OFF ratio": 1.2}
{"variant": "U7A U8C U10C C12G C13U", "aptazyme ON/OFF ratio": 1.41}
{"variant": "U7G U8A U10G U11G C12U C13U", "aptazyme ON/OFF ratio": 1.65}
{"variant": "U7G U8A G9C U11G C12A", "aptazyme ON/OFF ratio": 1.03}
{"variant": "U7A U11G C12U C13G", "aptazyme ON/OFF ratio": 1.06}
{"variant": "U7A U8C U11C C12G C13G", "aptazyme ON/OFF ratio": 1.22}
{"variant": "U7A G9C U10A U11A C12A C13U", "aptazyme ON/OFF ratio": 1.09}
{"variant": "U7C U10G U11C C12G C13G", "aptazyme ON/OFF ratio": 1.16}
{"variant": "U7A U8G U10G U11A C12A C13A", "aptazyme ON/OFF ratio": 1.55}
{"variant": "G9A U10C U11G C12A C13G", "aptazyme ON/OFF ratio": 1.3}
{"variant": "U7A U10G U11A C13G", "aptazyme ON/OFF ratio": 1.09}
{"variant": "U7C G9A U10C U11C C12U", "aptazyme ON/OFF ratio": 1.05}
{"variant": "U7G U10A C12A C13U", "aptazyme ON/OFF ratio": 1.18}
{"variant": "U7C G9A U11C C13G", "aptazyme ON/OFF ratio": 1.04}
{"variant": "U7C U8C G9U U10A U11A C12G C13U", "aptazyme ON/OFF ratio": 1.11}
{"variant": "U7G G9A U10C U11G C12A", "aptazyme ON/OFF ratio": 1.09}
{"variant": "U7G U8G U10C C13A", "aptazyme ON/OFF ratio": 1.33}
{"variant": "G9A U10A U11G C13G", "aptazyme ON/OFF ratio": 1.11}
{"variant": "U7A G9U U10G U11A", "aptazyme ON/OFF ratio": 1.08}
{"variant": "U7C U10G U11G C12U C13A", "aptazyme ON/OFF ratio": 1.13}
{"variant": "U7G U8G G9C U11C C12A C13U", "aptazyme ON/OFF ratio": 4.45}
{"variant": "U7A U8C G9A U10A U11A C12A C13A", "aptazyme ON/OFF ratio": 1.11}
{"variant": "G9U U10A U11G C13G", "aptazyme ON/OFF ratio": 1.22}
{"variant": "U7C U8A U10G U11G C13A", "aptazyme ON/OFF ratio": 1.23}
{"variant": "U7A U8A U10C C12G C13G", "aptazyme ON/OFF ratio": 1.19}
{"variant": "U8C G9U U10A U11G C13U", "aptazyme ON/OFF ratio": 1.32}
{"variant": "U7C U8A U11G C12A C13G", "aptazyme ON/OFF ratio": 1.14}
{"variant": "U8G G9U U10A U11A C12G", "aptazyme ON/OFF ratio": 1.14}
{"variant": "U7A U8A G9A U10G C12U", "aptazyme ON/OFF ratio": 1.14}
{"variant": "U7G U8G G9A U10C U11A C12A", "aptazyme ON/OFF ratio": 1.34}
{"variant": "U7A U8G U10G U11C C12U", "aptazyme ON/OFF ratio": 1.53}
{"variant": "U7C G9A U10G U11G C12U C13A", "aptazyme ON/OFF ratio": 1.14}
{"variant": "U7A U8A G9A U10A U11C", "aptazyme ON/OFF ratio": 1.04}
{"variant": "U7C U8A G9A U10A U11G C12G", "aptazyme ON/OFF ratio": 1.12}
{"variant": "U7G U10C U11C C13A", "aptazyme ON/OFF ratio": 1.06}
{"variant": "U7C G9U U10G U11A C12A C13G", "aptazyme ON/OFF ratio": 1.13}
{"variant": "U7G U8G G9C U11A C12A C13A", "aptazyme ON/OFF ratio": 1.14}
{"variant": "U7G U8C G9C U10A U11G C12G", "aptazyme ON/OFF ratio": 1.17}
{"variant": "U7G U8C U10A C12G C13U", "aptazyme ON/OFF ratio": 1.32}
{"variant": "U8G G9C U11C C12G C13G", "aptazyme ON/OFF ratio": 1.05}
{"variant": "U7A U8C U11A C13U", "aptazyme ON/OFF ratio": 1.15}
{"variant": "U7G U11A C13U", "aptazyme ON/OFF ratio": 1.36}
{"variant": "U7C U8C G9A U10A U11G C12U C13A", "aptazyme ON/OFF ratio": 1.13}
